In this assay the target is HPIV3 fusion protein (F), parental (Human parainfluenza virus 3, strain …, UniProt P06828). Put plainly: immunostaining of cells or tissue.

This note sets out measurements from paper PMC11470942 (Nature Communications, 2024).

Chain of HPIV3 fusion protein (F), parental (P06828 19-539): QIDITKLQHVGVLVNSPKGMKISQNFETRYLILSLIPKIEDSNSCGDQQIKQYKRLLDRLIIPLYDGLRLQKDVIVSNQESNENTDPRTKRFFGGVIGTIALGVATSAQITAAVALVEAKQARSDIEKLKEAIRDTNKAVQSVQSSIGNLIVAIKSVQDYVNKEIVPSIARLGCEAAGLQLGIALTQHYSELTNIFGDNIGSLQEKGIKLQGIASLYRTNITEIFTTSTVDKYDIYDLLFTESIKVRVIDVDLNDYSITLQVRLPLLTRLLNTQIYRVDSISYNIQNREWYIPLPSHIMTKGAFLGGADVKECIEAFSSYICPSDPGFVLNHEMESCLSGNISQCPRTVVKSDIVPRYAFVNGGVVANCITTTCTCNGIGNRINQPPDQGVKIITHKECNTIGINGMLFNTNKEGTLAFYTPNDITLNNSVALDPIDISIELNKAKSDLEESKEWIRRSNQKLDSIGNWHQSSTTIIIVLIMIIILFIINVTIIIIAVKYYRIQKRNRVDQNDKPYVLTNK

B1: PIA174 antibody fragment (Fab) (Fab, V domains shown)
VH: VQLQESGPGLVKPSETLSLTCTVSGGSVSSYYWSWIRQPPGKGLEWIGNIYYSGTTKYNPSLKSRVTISVDVSKNQFSLNLISVTAADTAVYFCARQVKSGWFVQPFDYWGQGALVTVSS
VL: QMTQSPPSLSAYVGDRVTITCRASQAIANYLAWFQQKPGKAPKSLIYAASTLQSGVPSRFSGSGSGTDFTLTISSLQPEDFATYYCHQYNTYPITFGQGTRLEIK
Regarding B1, the binding result is “binds”.
